Consider four molecules from publication PMC10160951 (Proceedings of the National Academy of Sciences of the …, 2023).

Experiment [1] has as its target full-length SNAP-tagged NKG2D on HEK293 TRex cells (co-expressed with DAP10) (human) (UniProt P26718). Briefly: FRET or BRET.
The target of experiment [2] is T1, MICA ECD (24 to 297), not dye-labeled (human, UniProt Q29983 24-297).
T1 sequence: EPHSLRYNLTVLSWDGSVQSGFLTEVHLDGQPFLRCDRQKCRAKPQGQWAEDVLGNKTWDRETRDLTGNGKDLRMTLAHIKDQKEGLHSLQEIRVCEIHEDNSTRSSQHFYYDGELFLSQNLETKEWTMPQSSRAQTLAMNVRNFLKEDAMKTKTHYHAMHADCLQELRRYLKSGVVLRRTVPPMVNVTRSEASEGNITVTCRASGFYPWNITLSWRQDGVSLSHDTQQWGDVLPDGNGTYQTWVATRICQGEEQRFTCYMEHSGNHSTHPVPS
Briefly: SPR.

The target in experiment [3] is T2, Alexa Fluor 647-labeled MICB ECD (24 to 297) (human, UniProt Q29980 24-297, AF647 label on Cys213).
T2 sequence: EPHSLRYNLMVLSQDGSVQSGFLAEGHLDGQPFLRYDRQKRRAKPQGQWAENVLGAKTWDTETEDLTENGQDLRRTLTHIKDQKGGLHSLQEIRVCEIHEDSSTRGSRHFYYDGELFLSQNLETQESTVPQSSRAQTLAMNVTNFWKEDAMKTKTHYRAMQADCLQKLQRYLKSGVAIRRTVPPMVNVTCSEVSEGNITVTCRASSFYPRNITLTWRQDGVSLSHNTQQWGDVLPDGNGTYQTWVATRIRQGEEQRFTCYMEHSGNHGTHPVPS
Description: FRET or BRET.

The target of experiment [4] is T1, MICA ECD (24 to 297), not dye-labeled. Description: SEC-MALS.

In experiment [1], “Alexa Fluor 647-labeled ULBP6 ECD (29 to 207) (from UniProt Q5VY80 29-207) (ligand)” had an equilibrium dissociation constant (Kd) of 2.5 nM.

B1: biotinylated and detagged NKG2D ECD (90 to 216) (domain or fragment)
chain: PLTESYCGPCPKNWICYKNNCYQFFDESKNWYESQASCMSQNASLLKVYSKEDQDLLKLVKSYHWMGLVHIPTNGSWQWEDGSILSPNLLTIIEMQKGDCALYASSFKGYIENCSTPNTYICMQRTV
modifications: biotin on the Avi tag
For the molecule B1, the equilibrium dissociation constant (Kd) in experiment [2] amounted to 48 nM.

B2: full-length SNAP-tagged NKG2D on HEK293 TRex cells (co-expressed with DAP10) (receptor)
chain: MGWIRGRRSRHSWEMSEFHNYNLDLKKSDFSTRWQKQRCPVVKSKCRENASPFFFCCFIAVAMGIRFIIMVTIWSAVFLNSLFNQEVQIPLTESYCGPCPKNWICYKNNCYQFFDESKNWYESQASCMSQNASLLKVYSKEDQDLLKLVKSYHWMGLVHIPTNGSWQWEDGSILSPNLLTIIEMQKGDCALYASSFKGYIENCSTPNTYICMQRTV
modifications: terbium label on the SNAP-tag
For B2, the Kd in experiment [3] came out at 700 nM.

B3: hNKG2D 90-216, S117E, I173S mutant (domain or fragment)
chain: MGPLTESYCGPCPKNWICYKNNCYQFFDEEKNWYESQASCMSQNASLLKVYSKEDQDLLKLVKSYHWMGLVHIPTNGSWQWEDGSSLSPNLLTIIEMQKGDCALYASSFKGYIENCSTPNTYICMQRTV
As to B3, in experiment [4], the binding result was “binds”.
